In the Immune Epitope Database (IEDB):

Tests used:
[1] = target: HLA-B*57:01; assay: IEDB peptide-MHC binding, purified MHC/competitive/fluorescence; filed as Kd, often an IC50 or EC50 that approximates it; ≥ and ≤ were set here for values at or beyond the usual limits of such assays
[2] = target: HLA-B*27:03; assay: as above
[3] = target: HLA-B*46:01; assay: as above
[4] = target: HLA-B*39:01; assay: as above
[5] = target: HLA-A*02:01; assay: as above
[6] = target: HLA-A*69:01; assay: as above
[7] = target: HLA-B*18:01; assay: as above
[8] = target: HLA-A*02:12; assay: IEDB peptide-MHC binding, purified MHC/direct/fluorescence; filed as Kd, often an IC50 or EC50 that approximates it; ≥ and ≤ were set here for values at or beyond the usual limits of such assays
[9] = target: HLA-A*02:11; assay: as above
[10] = target: HLA-A*02:19; assay: as above
[11] = target: HLA-A*68:02; assay: as above
[12] = target: HLA-A*02:16; assay: as above
[13] = target: HLA-A*03:01; assay: as above
[14] = target: HLA-A*26:01; assay: as above; conditions: source organism: Sudan ebolavirus - Uganda (2000)
[15] = target: HLA-A*23:01; assay: as above
[16] = target: HLA-A*24:03; assay: as above
[17] = target: HLA-A*02:03; assay: as above
[18] = target: HLA-B*51:01; assay: IEDB peptide-MHC binding, purified MHC/competitive/fluorescence; filed as Kd, often an IC50 or EC50 that approximates it; ≥ and ≤ were set here for values at or beyond the usual limits of such assays
[19] = target: HLA-B*35:01; assay: as above; conditions: source organism: Zaire ebolavirus
[20] = target: HLA-A*26:01; assay: as above
[21] = target: HLA-B*15:17; assay: as above
[22] = target: HLA-B*15:01; assay: as above
[23] = target: HLA-B*07:02; assay: IEDB peptide-MHC binding, purified MHC/direct/fluorescence; filed as Kd, often an IC50 or EC50 that approximates it; ≥ and ≤ were set here for values at or beyond the usual limits of such assays
[24] = target: HLA-A*29:02; assay: as above
[25] = target: HLA-A*11:01; assay: as above
[26] = target: HLA-A*31:01; assay: IEDB peptide-MHC binding, purified MHC/competitive/fluorescence; filed as Kd, often an IC50 or EC50 that approximates it; ≥ and ≤ were set here for values at or beyond the usual limits of such assays
[27] = target: HLA-A*26:02; assay: as above; conditions: source organism: Orthomarburgvirus marburgense
[28] = target: HLA-A*02:06; assay: as above; conditions: source organism: Orthomarburgvirus marburgense
[29] = target: HLA-B*57:01; assay: IEDB peptide-MHC binding, purified MHC/direct/fluorescence; filed as Kd, often an IC50 or EC50 that approximates it; ≥ and ≤ were set here for values at or beyond the usual limits of such assays; conditions: source organism: Marburg virus - Musoke, Kenya, 1980
[30] = target: HLA-B*58:01; assay: as above; conditions: source organism: Ravn virus - Ravn, Kenya, 1987
[31] = target: HLA-B*39:01; assay: as above; conditions: source organism: Ravn virus - Ravn, Kenya, 1987
[32] = target: HLA-A*02:01; assay: as above; conditions: source organism: Marburg virus - Musoke, Kenya, 1980
[33] = target: HLA-A*69:01; assay: as above; conditions: source organism: Marburg virus - Musoke, Kenya, 1980
[34] = target: HLA-B*18:01; assay: as above; conditions: source organism: Marburg virus - Musoke, Kenya, 1980
[35] = target: HLA-B*15:09; assay: as above; conditions: source organism: Ravn virus - Ravn, Kenya, 1987
[36] = target: HLA-A*26:03; assay: as above; conditions: source organism: Ravn virus - Ravn, Kenya, 1987
[37] = target: HLA-B*15:01; assay: as above; conditions: source organism: Marburg virus - Musoke, Kenya, 1980
[38] = target: HLA-A*01:01; assay: as above; conditions: source organism: Marburg virus - Musoke, Kenya, 1980
[39] = source organism: Zaire ebolavirus
[40] = source organism: Ravn virus - Ravn, Kenya, 1987
[41] = source organism: Bacillus thuringiensis serovar israelensis ATCC 35646
[42] = source organism: Bacillus cereus NVH0597-99
[43] = source organism: Orthomarburgvirus marburgense
[44] = source organism: Marburg virus - Musoke, Kenya, 1980
[45] = source organism: Orthohantavirus tulaense
[46] = source organism: Vibrio vulnificus YJ016
[47] = source organism: Vibrio vulnificus CMCP6

Measured: Kd

ATAAATEAY
≥ 20 µM: [1]; [39] | [2]; [39] | [3]; [39] | [4]; [39] | [5]; [39] | [6]; [39] | [7]; [39] | [8]; [39] | [9]; [39] | [10]; [39] | [11]; [39] | [12]; [39] | [13]; [39] | [15]; [39] | [16]; [39] | [17]; [39]
0.216 µM: [14]

FPSNMMVVT
≥ 20 µM: [1]; [39] | [2]; [39] | [18]; [39] | [3]; [39] | [4]; [39] | [5]; [39] | [20]; [39] | [6]; [39] | [7]; [39] | [21]; [39] | [22]; [39] | [8]; [40] | [9]; [40] | [10]; [40] | [11]; [40] | [12]; [40] | [13]; [40] | [15]; [40] | [16]; [40] | [17]; [40] | [24]; [40]
0.751 µM: [23]; [39]
0.0004 µM: [19]

GLSFLNPEK
≥ 20 µM: [1]; [39] | [2]; [39] | [18]; [39] | [3]; [39] | [4]; [39] | [20]; [39] | [6]; [39] | [7]; [39] | [21]; [39] | [22]; [39] | [8]; [40] | [10]; [40] | [11]; [40] | [15]; [40] | [16]; [40] | [17]; [40]
0.152 µM: [13]; source organism: Sudan ebolavirus - Maleo (1979)

ITMYVAFEQ
≥ 20 µM: [1]; [41] | [2]; [41] | [18]; [41] | [3]; [41] | [4]; [41] | [5]; [41] | [20]; [41] | [6]; [41] | [7]; [41] | [21]; [41] | [8]; [42] | [9]; [42] | [10]; [42] | [11]; [42] | [12]; [42] | [13]; [42] | [15]; [42] | [25]; [42] | [16]; [42] | [17]; [42] | [24]; [42]

LFLSFCSLF
≥ 20 µM: [26]; [43] | [27] | [21]; [43] | [28] | [29] | [11]; [44] | [31] | [32] | [33] | [34] | [35] | [23]; [44] | [36] | [37] | [25]; [44] | [38]
0.245 µM: [16]; [44]
1.38 µM: [30]

SLMSRVVYK
0.0772 µM: [13]; source organism: Orthohantavirus prospectense
≥ 20 µM: [1]; [45] | [2]; [45] | [18]; [45] | [3]; [45] | [4]; [45] | [20]; [45] | [6]; [45] | [7]; [45] | [21]; [45] | [22]; [45] | [8]; [45] | [10]; [45] | [11]; [45] | [12]; [45] | [15]; [45] | [16]; [45] | [17]; [45] | [24]; [45]
0.0031 µM: [26]; [45]

SVMSTFFWE
0.35 µM: [25]; [47]
≥ 20 µM: [1]; [46] | [2]; [46] | [18]; [46] | [3]; [46] | [4]; [46] | [5]; [46] | [20]; [46] | [6]; [46] | [7]; [46] | [21]; [46] | [8]; [47] | [9]; [47] | [10]; [47] | [11]; [47] | [12]; [47] | [13]; [47] | [15]; [47] | [16]; [47] | [17]; [47] | [24]; [47]
